From article PMC10014274

Biological target: VNp-mNeongreen-TEV-etanercept-His6 fusion protein (human)
Assay: SDS-PAGE without reducing agent and anti-mNeongreen western blot; VNp-mNG-etanercept purified from E. coli, without DTT

A stoichiometry N of 2 was found for “VNp-mNeongreen-TEV-etanercept-His6 fusion protein (Fc fusion)” in this work.
